As a reminder, the stoichiometry N is a count of units in the complex or per binding partner.

Here are results for one protein from publication PMC10889901, “Deciphering the structure of a multi-drug resistant Acinetobacter baumannii short-chain dehydrogenase reductase” (PLOS ONE, 2024).

The series deals with the molecule itself. As to the kind of experiment: crystal structure; hanging-drop vapour diffusion, 23°C, 0.2 M lithium sulphate monohydrate, 0.1 M TRIS hydrochloride pH 8.5, 30% PEG 8,000; single protomer in the asymmetric unit, tetramer found by PISA analysis of the crystal.

B1: Acinetobacter baumannii short-chain dehydrogenase reductase (enzyme)
chain: SNAMKLDLQNKIAVVSGSTSGIGLGIAKGLASAGATVVVVGRKQAGVDEAIAHIRQSVPEASLRGVDADLTTEQGAAALFAAEPKADILVNNLGIFNDEDFFSVPDEEWMRFYQVNVLSGVRLARHYAPSMVEQGWGRIIFISSESGVAIPGDMINYGVTKSANLAVSHGLAKRLAGTGVTVNAVLPGPTFTDGLENMLADAAAKAGRSTRDQADEFVKVLRPSSIIQRAAEVDEVANMVVYIASPLSSATSGAALRVDGGVVDTLV
notes: residues of the vector printed after the TEV cleavage site (ENLYFQ/SNA), left on the protein after the tag is removed; short-chain dehydrogenase reductase (SDR) of Acinetobacter baumannii; Vector pMCSG21; one protomer in the asymmetric unit, the tetramer comes from crystal symmetry (PISA); also called SDR; SDR enzyme; source: E. coli BL21(DE3) pLysS, purified (HisTrap, TEV cleavage, Superdex …)
As for B1, the “stoichiometry N” value was determined as 4.
